Data as given in paper PMC9482650, “Quantitative fragmentomics allow affinity mapping of interactomes” (Nature Communications, 2022).

Tests used:
Assay in all cases: holdup assay
Set-up in all cases: key: below the threshold = too weak to quantify, mostly under pKd 3.1 to 4
[1] = target: T1, TJP3_3, O95049
T1 sequence (O95049 375-456, limits assumed, looked up): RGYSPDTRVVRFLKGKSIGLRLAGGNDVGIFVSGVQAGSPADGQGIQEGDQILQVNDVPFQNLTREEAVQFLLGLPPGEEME

[2] = target: AHNAK1, Q09666
[3] = target: SCRIB_3, Q14160
[4] = target: FRMPD3, Q5JV73
[5] = target: T2, DLG3_3, Q92796
T2 sequence (Q92796 374-475, limits assumed, looked up): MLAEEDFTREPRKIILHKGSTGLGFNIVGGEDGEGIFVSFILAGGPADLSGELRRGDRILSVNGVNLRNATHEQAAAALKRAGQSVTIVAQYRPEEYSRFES

[6] = target: PTPN3, P26045
[7] = target: T3, SHANK1, Q9Y566
T3 sequence (Q9Y566 658-767, limits assumed, looked up): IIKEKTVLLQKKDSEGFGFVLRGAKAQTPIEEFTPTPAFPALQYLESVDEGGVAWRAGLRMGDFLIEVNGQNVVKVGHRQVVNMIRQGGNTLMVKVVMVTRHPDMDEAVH

[8] = target: T4, SNTG2, Q9NY99
T4 sequence (Q9NY99 68-166, limits assumed, looked up): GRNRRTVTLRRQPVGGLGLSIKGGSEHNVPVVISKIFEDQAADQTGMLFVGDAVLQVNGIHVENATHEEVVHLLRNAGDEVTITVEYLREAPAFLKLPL

[9] = target: T5, SIPA1L2, Q9P2F8
T5 sequence (Q9P2F8 945-1036, limits assumed, looked up): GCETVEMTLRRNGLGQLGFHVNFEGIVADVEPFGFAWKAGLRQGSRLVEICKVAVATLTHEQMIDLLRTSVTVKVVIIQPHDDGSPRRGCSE

[10] = target: T6, ARHGAP21, Q5T5U3
T6 sequence (Q5T5U3 45-169, limits assumed, looked up): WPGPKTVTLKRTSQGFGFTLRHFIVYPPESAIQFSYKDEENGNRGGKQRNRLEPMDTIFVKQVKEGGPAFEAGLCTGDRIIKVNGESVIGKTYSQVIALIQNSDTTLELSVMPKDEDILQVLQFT

[11] = target: NHERF4_2, Q86UT5
[12] = target: T7, PTPN13_1, Q12923
T7 sequence (Q12923 1088-1188, limits assumed, looked up): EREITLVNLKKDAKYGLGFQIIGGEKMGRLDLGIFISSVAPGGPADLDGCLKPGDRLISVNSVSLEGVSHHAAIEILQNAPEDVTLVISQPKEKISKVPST

[13] = target: DLG4_2, P78352
[14] = target: SCRIB_2, Q14160
[15] = target: GRASP, Q7Z6J2
[16] = target: SCRIB_1, Q14160
[17] = target: DLG2_2, Q15700
[18] = target: T8, SYNJ2BP, P57105
T8 sequence (P57105 8-110, limits assumed, looked up): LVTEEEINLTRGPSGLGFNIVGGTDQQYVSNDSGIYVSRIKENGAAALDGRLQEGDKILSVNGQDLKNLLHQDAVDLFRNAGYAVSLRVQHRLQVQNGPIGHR

[19] = target: Inadl_6, Q8NI35
[20] = target: T9, MPP2, Q14168
T9 sequence (Q14168 180-250, limits assumed, looked up): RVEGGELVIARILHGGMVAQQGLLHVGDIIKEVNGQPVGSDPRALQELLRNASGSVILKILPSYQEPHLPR

[21] = target: T10, LRRC7, Q96NW7
T10 sequence (Q96NW7 1440-1537, limits assumed, looked up): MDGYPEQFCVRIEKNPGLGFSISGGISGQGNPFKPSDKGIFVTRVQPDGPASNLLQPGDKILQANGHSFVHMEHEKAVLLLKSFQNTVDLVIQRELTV

[22] = target: PDZRN4_1, Q6ZMN7
[23] = target: T11, DFNB31_1, Q9P202
T11 sequence (Q9P202 135-233, limits assumed, looked up): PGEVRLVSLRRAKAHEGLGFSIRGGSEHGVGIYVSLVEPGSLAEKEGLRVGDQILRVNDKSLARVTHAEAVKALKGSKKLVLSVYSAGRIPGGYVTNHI

[24] = target: NHERF2_2, Q15599
[25] = target: T12, DLG3_2, Q92796
T12 sequence (Q92796 221-321, limits assumed, looked up): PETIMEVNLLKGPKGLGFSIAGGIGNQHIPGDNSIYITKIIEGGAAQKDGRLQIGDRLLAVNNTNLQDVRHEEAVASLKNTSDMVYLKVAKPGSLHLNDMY

[26] = target: LNX1_2, Q8TBB1
[27] = plain residues with an end cap or a label only (N-terminal biotin on a linker: gsgsgs; C-terminal amide)
[28] = plain residues with an end cap or a label only (N-terminal biotin on a linker: ttds)
[29] = plain residues with an end cap or a label only (N-terminal biotin on a linker: ado-ado)

Measured: pKd

Chain of Inadl_6, Q8NI35 (Q8NI35 1058-1167): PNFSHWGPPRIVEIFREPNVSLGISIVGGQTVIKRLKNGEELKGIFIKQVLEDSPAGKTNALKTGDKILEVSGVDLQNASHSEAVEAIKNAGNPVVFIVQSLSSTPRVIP
Chain of LNX1_2, Q8TBB1 (Q8TBB1 371-470): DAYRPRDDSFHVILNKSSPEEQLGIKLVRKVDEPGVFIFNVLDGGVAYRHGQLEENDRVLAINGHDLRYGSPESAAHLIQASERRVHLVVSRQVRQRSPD
Chain of PDZRN4_1, Q6ZMN7 (Q6ZMN7 213-318): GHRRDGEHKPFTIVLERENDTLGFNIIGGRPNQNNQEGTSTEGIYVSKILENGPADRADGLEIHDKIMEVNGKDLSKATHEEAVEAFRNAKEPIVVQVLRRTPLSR
Chain of AHNAK1, Q09666 (Q09666 4-100): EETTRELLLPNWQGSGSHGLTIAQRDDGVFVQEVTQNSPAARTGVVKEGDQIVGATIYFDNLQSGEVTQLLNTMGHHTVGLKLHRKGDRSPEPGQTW
Chain of DLG2_2, Q15700 (Q15700 189-283): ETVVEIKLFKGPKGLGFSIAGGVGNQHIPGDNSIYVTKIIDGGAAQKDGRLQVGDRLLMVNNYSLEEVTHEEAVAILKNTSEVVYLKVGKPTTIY
Chain of SCRIB_2, Q14160 (Q14160 857-960): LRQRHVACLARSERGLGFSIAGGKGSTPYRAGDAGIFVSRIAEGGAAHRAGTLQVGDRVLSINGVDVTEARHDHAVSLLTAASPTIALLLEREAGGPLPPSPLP
Chain of SCRIB_1, Q14160 (Q14160 718-814): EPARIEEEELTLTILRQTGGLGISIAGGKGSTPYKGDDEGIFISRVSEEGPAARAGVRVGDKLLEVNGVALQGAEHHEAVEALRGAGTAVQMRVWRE
Chain of DLG4_2, P78352 (P78352 155-259): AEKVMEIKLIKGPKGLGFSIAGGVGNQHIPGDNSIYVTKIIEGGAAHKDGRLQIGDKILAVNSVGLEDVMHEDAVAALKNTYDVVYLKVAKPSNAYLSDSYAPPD
Chain of GRASP, Q7Z6J2 (Q7Z6J2 96-193): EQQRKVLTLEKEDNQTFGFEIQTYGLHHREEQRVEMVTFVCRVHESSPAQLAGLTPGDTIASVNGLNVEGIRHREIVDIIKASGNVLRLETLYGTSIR
Chain of FRMPD3, Q5JV73 (Q5JV73 12-100): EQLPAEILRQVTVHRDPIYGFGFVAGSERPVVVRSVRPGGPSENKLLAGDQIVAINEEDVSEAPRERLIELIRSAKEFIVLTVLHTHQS
Chain of SCRIB_3, Q14160 (Q14160 999-1103): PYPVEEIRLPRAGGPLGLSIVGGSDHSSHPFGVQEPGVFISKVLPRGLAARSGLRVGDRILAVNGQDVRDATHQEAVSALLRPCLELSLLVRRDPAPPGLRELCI
Chain of NHERF2_2, Q15599 (Q15599 142-238): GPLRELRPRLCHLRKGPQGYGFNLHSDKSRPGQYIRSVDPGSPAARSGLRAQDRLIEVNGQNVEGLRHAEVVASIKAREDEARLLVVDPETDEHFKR
Chain of PTPN3, P26045 (P26045 505-587): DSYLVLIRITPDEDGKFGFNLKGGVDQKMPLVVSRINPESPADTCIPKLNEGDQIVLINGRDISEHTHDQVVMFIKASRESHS
Chain of NHERF4_2, Q86UT5 (Q86UT5 220-308): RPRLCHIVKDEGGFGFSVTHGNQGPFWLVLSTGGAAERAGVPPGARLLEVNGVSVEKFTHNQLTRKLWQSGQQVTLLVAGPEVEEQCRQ

ELIQDTSTSFSTTREW [ARAP3_int, Q8WWN8]
4.4: [7]; [27]
4.16: [25]; [27]
below the threshold: [1]; [27] | [2]; [27] | [3]; [27] | [4]; [27] | [5]; [27] | [8]; [27] | [9]; [27] | [10]; [27] | [11]; [27] | [12]; [27] | [13]; [27] | [14]; [27] | [15]; [27] | [16]; [27] | [17]; [27] | [18]; [27] | [19]; [27] | [20]; [27] | [21]; [27] | [22]; [27] | [23]; [27] | [24]; [27] | [26]; [27]
3.84: [6]; [27]

GGPKEEESPV [SLC16A1, P53985]
below the threshold: [1]; [28] | [2]; [28] | [3]; [28] | [4]; [28] | [5]; [28] | [7]; [28] | [8]; [28] | [9]; [28] | [10]; [28] | [11]; [28] | [12]; [28] | [14]; [28] | [15]; [28] | [17]; [28] | [19]; [28] | [20]; [28] | [21]; [28] | [22]; [28] | [24]; [28] | [25]; [28] | [26]; [28]
5.18: [16]; [28]
4.25: [6]; [28]
4.32: [18]; [28]
3.5: [13]; [28] | [23]; [28]

EEPEERHTEL [CES2, O00748]
4.38: [25]; [29]
4.94: [6]; [29]
3.86: [17]; [29]
3.61: [21]; [29]
4: [13]; [29]
4.62: [15]; [29]
3.6: [23]; [29]
3.79: [14]; [29]
4.89: [3]; [29]
4.21: [16]; [29]
3.87: [19]; [29]
4.13: [22]; [29]
below the threshold: [1]; [29] | [2]; [29] | [4]; [29] | [5]; [29] | [8]; [29] | [9]; [29] | [10]; [29] | [11]; [29] | [12]; [29] | [20]; [29] | [26]; [29]
4.18: [18]; [29]
4.55: [7]; [29]
4.63: [24]; [29]
